Experimental data taken from paper PMC5737841.

Tests used:
Assay in all cases: UV crosslinking
SisCsx1-M2 = target: T1, SisCsx1-M2 (Sulfolobus islandicus Rey15A, UniProt F0NE21 1-454, G95L;A97L;A99L)
T1 sequence: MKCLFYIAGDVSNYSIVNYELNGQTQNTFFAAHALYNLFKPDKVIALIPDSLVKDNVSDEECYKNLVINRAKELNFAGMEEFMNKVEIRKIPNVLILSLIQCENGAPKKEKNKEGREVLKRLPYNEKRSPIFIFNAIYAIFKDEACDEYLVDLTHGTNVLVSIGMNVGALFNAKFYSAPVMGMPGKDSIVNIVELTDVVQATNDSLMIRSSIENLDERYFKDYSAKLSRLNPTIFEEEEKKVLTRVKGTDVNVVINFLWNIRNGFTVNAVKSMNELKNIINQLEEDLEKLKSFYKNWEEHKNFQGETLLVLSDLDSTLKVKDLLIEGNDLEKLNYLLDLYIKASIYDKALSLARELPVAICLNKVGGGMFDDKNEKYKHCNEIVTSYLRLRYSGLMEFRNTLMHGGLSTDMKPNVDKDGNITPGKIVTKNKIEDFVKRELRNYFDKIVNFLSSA

SisCsx1-M3 = target: T2, SisCsx1-M3 (Sulfolobus islandicus Rey15A, UniProt F0NE21 1-454, D50L;S51L)
T2 sequence: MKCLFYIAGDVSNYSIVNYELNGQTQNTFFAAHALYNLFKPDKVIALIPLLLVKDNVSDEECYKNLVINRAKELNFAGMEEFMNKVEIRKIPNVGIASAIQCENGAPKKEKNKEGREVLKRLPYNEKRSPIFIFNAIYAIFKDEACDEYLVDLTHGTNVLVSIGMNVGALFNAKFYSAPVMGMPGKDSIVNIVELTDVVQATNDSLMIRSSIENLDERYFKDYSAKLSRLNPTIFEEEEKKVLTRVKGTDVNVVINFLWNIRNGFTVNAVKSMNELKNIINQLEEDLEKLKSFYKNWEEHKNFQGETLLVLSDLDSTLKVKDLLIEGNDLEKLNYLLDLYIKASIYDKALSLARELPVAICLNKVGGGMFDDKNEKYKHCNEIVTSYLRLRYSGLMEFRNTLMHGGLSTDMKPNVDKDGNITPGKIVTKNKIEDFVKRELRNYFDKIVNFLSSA

SisCsx1-M6 = target: T3, SisCsx1-M6 (Sulfolobus islandicus Rey15A, UniProt F0NE21 1-454, H155L)
T3 sequence: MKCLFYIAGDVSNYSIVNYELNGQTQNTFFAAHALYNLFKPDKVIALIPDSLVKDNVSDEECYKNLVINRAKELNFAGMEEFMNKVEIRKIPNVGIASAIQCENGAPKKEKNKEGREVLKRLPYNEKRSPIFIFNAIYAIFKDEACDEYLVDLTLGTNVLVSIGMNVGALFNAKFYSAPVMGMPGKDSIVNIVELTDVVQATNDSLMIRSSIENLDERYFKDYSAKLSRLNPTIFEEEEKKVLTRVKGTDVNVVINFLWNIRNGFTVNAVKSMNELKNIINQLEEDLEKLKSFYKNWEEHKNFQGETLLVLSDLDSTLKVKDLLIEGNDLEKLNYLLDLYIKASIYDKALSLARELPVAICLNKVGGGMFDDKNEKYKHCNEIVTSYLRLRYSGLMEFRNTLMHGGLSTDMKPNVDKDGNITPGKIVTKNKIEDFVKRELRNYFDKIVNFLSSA

Measured: binding result

CGCAAAAAAA (ssRNA) [S3A7]
no binding: SisCsx1-M2 | SisCsx1-M3 | SisCsx1-M6
